Bridges are numbered along the chain shown (N, C = ends). Where no end group is shown, it is not given here. [ ]: non-standard residue; d: D form. Aib = CC(C)(N)C(=O)O
T1: GIP receptor (UniProt P48546 22-466)
T1 sequence (looked up): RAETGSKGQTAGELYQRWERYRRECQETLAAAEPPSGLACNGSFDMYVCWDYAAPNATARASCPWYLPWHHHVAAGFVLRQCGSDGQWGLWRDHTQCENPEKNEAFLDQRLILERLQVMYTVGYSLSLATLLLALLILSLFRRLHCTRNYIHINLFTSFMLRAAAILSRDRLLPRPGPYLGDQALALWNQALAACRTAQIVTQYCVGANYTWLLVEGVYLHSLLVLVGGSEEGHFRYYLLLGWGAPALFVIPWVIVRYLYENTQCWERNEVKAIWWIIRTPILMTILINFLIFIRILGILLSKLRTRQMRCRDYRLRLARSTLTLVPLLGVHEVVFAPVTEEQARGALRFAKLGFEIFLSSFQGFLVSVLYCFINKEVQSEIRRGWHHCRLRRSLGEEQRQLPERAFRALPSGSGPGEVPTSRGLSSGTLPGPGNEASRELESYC

B1: mt-155 (peptide)
peptide: YSQGTFTSDYSKYLDEQAAKEFVNWLLAGGPSSGAPPPS-NH2
modifications: lactam 12-16; N-terminus assumed
SMILES: CC(C)C[C@H](NC(=O)[C@H](CC(C)C)NC(=O)[C@H](Cc1c[nH]c2ccccc12)NC(=O)[C@H](CC(N)=O)NC(=O)[C@@H](NC(=O)[C@H](Cc1ccccc1)NC(=O)[C@H](CCC(=O)O)NC(=O)[C@H](CCCCN)NC(=O)[C@H](C)NC(=O)[C@H](C)NC(=O)[C@H](CCC(N)=O)NC(=O)[C@@H]1CCC(=O)NCCCC[C@H](NC(=O)[C@H](CO)NC(=O)[C@H](Cc2ccc(O)cc2)NC(=O)[C@H](CC(=O)O)NC(=O)[C@H](CO)NC(=O)[C@@H](NC(=O)[C@H](Cc2ccccc2)NC(=O)[C@@H](NC(=O)CNC(=O)[C@H](CCC(N)=O)NC(=O)[C@H](CO)NC(=O)[C@@H](N)Cc2ccc(O)cc2)[C@@H](C)O)[C@@H](C)O)C(=O)N[C@@H](Cc2ccc(O)cc2)C(=O)N[C@@H](CC(C)C)C(=O)N[C@@H](CC(=O)O)C(=O)N1)C(C)C)C(=O)N[C@@H](C)C(=O)NCC(=O)NCC(=O)N1CCC[C@H]1C(=O)N[C@@H](CO)C(=O)N[C@@H](CO)C(=O)NCC(=O)N[C@@H](C)C(=O)N1CCC[C@H]1C(=O)N1CCC[C@H]1C(=O)N1CCC[C@H]1C(=O)N[C@@H](CO)C(N)=O
B2: mt-93 (peptide)
peptide: HSQGTFTSDYSIYLDEKHQKEFIAWLLAQ-NH2
modifications: lactam 16-20, 17-21; N-terminus assumed
SMILES: CC[C@H](C)[C@H](NC(=O)[C@H](Cc1ccccc1)NC(=O)[C@@H]1CCC(=O)NCCCC[C@@H]2NC(=O)[C@@H](NC(=O)[C@H](CC(=O)O)NC(=O)[C@H](CC(C)C)NC(=O)[C@H](Cc3ccc(O)cc3)NC(=O)[C@@H](NC(=O)[C@H](CO)NC(=O)[C@H](Cc3ccc(O)cc3)NC(=O)[C@H](CC(=O)O)NC(=O)[C@H](CO)NC(=O)[C@@H](NC(=O)[C@H](Cc3ccccc3)NC(=O)[C@@H](NC(=O)CNC(=O)[C@H](CCC(N)=O)NC(=O)[C@H](CO)NC(=O)[C@@H](N)Cc3c[nH]cn3)[C@@H](C)O)[C@@H](C)O)[C@@H](C)CC)CCC(=O)NCCCC[C@H](NC(=O)[C@H](CCC(N)=O)NC(=O)[C@H](Cc3c[nH]cn3)NC2=O)C(=O)N1)C(=O)N[C@@H](C)C(=O)N[C@@H](Cc1c[nH]c2ccccc12)C(=O)N[C@@H](CC(C)C)C(=O)N[C@@H](CC(C)C)C(=O)N[C@@H](C)C(=O)N[C@@H](CCC(N)=O)C(N)=O
B3: mt-62 (peptide)
peptide: HSQGTFTSDYSIYLDEIHQKEFIAWLMNT-NH2
modifications: lactam 16-20; N-terminus assumed
SMILES: CC[C@H](C)[C@H](NC(=O)[C@H](Cc1ccccc1)NC(=O)[C@H](CCC(=O)O)NC(=O)[C@@H]1CCCCNC(=O)CC[C@H](NC(=O)[C@H](CC(=O)O)NC(=O)[C@H](CC(C)C)NC(=O)[C@H](Cc2ccc(O)cc2)NC(=O)[C@@H](NC(=O)[C@H](CO)NC(=O)[C@H](Cc2ccc(O)cc2)NC(=O)[C@H](CC(=O)O)NC(=O)[C@H](CO)NC(=O)[C@@H](NC(=O)[C@H](Cc2ccccc2)NC(=O)[C@@H](NC(=O)CNC(=O)[C@H](CCC(N)=O)NC(=O)[C@H](CO)NC(=O)[C@@H](N)Cc2c[nH]cn2)[C@@H](C)O)[C@@H](C)O)[C@@H](C)CC)C(=O)N[C@@H]([C@@H](C)CC)C(=O)N[C@@H](Cc2c[nH]cn2)C(=O)N[C@@H](CCC(N)=O)C(=O)N1)C(=O)N[C@@H](C)C(=O)N[C@@H](Cc1c[nH]c2ccccc12)C(=O)N[C@@H](CC(C)C)C(=O)N[C@@H](CCSC)C(=O)N[C@@H](CC(N)=O)C(=O)N[C@H](C(N)=O)[C@@H](C)O
B4: mt-146 (peptide)
peptide: YAQGTFISDYSKYLDEQAAKEFVNWLLAGGPSSGAPPPS-NH2
modifications: lactam 16-20; N-terminus assumed
SMILES: CC[C@H](C)[C@H](NC(=O)[C@H](Cc1ccccc1)NC(=O)[C@@H](NC(=O)CNC(=O)[C@H](CCC(N)=O)NC(=O)[C@H](C)NC(=O)[C@@H](N)Cc1ccc(O)cc1)[C@@H](C)O)C(=O)N[C@@H](CO)C(=O)N[C@@H](CC(=O)O)C(=O)N[C@@H](Cc1ccc(O)cc1)C(=O)N[C@@H](CO)C(=O)N[C@@H](CCCCN)C(=O)N[C@@H](Cc1ccc(O)cc1)C(=O)N[C@@H](CC(C)C)C(=O)N[C@@H](CC(=O)O)C(=O)N[C@H]1CCC(=O)NCCCC[C@@H](C(=O)N[C@@H](CCC(=O)O)C(=O)N[C@@H](Cc2ccccc2)C(=O)N[C@H](C(=O)N[C@@H](CC(N)=O)C(=O)N[C@@H](Cc2c[nH]c3ccccc23)C(=O)N[C@@H](CC(C)C)C(=O)N[C@@H](CC(C)C)C(=O)N[C@@H](C)C(=O)NCC(=O)NCC(=O)N2CCC[C@H]2C(=O)N[C@@H](CO)C(=O)N[C@@H](CO)C(=O)NCC(=O)N[C@@H](C)C(=O)N2CCC[C@H]2C(=O)N2CCC[C@H]2C(=O)N2CCC[C@H]2C(=O)N[C@@H](CO)C(N)=O)C(C)C)NC(=O)[C@H](C)NC(=O)[C@H](C)NC(=O)[C@H](CCC(N)=O)NC1=O
B5: mt-95 (peptide)
peptide: HAEGTFISDYSIAMDEIHQKDFVNWLLAQ-NH2
modifications: lactam 16-20; N-terminus assumed
SMILES: CC[C@H](C)[C@H](NC(=O)[C@H](CO)NC(=O)[C@H](Cc1ccc(O)cc1)NC(=O)[C@H](CC(=O)O)NC(=O)[C@H](CO)NC(=O)[C@@H](NC(=O)[C@H](Cc1ccccc1)NC(=O)[C@@H](NC(=O)CNC(=O)[C@H](CCC(=O)O)NC(=O)[C@H](C)NC(=O)[C@@H](N)Cc1c[nH]cn1)[C@@H](C)O)[C@@H](C)CC)C(=O)N[C@@H](C)C(=O)N[C@@H](CCSC)C(=O)N[C@@H](CC(=O)O)C(=O)N[C@H]1CCC(=O)NCCCC[C@@H](C(=O)N[C@@H](CC(=O)O)C(=O)N[C@@H](Cc2ccccc2)C(=O)N[C@H](C(=O)N[C@@H](CC(N)=O)C(=O)N[C@@H](Cc2c[nH]c3ccccc23)C(=O)N[C@@H](CC(C)C)C(=O)N[C@@H](CC(C)C)C(=O)N[C@@H](C)C(=O)N[C@@H](CCC(N)=O)C(N)=O)C(C)C)NC(=O)[C@H](CCC(N)=O)NC(=O)[C@H](Cc2c[nH]cn2)NC(=O)[C@H]([C@@H](C)CC)NC1=O
B6: mt-151 (peptide)
peptide: YSQGTFTSDYSKYLDEQAAKEFIAWLLAGGPSSGAPPPS-NH2
modifications: lactam 16-20; N-terminus assumed
SMILES: CC[C@H](C)[C@H](NC(=O)[C@H](Cc1ccccc1)NC(=O)[C@H](CCC(=O)O)NC(=O)[C@@H]1CCCCNC(=O)CC[C@H](NC(=O)[C@H](CC(=O)O)NC(=O)[C@H](CC(C)C)NC(=O)[C@H](Cc2ccc(O)cc2)NC(=O)[C@H](CCCCN)NC(=O)[C@H](CO)NC(=O)[C@H](Cc2ccc(O)cc2)NC(=O)[C@H](CC(=O)O)NC(=O)[C@H](CO)NC(=O)[C@@H](NC(=O)[C@H](Cc2ccccc2)NC(=O)[C@@H](NC(=O)CNC(=O)[C@H](CCC(N)=O)NC(=O)[C@H](CO)NC(=O)[C@@H](N)Cc2ccc(O)cc2)[C@@H](C)O)[C@@H](C)O)C(=O)N[C@@H](CCC(N)=O)C(=O)N[C@@H](C)C(=O)N[C@@H](C)C(=O)N1)C(=O)N[C@@H](C)C(=O)N[C@@H](Cc1c[nH]c2ccccc12)C(=O)N[C@@H](CC(C)C)C(=O)N[C@@H](CC(C)C)C(=O)N[C@@H](C)C(=O)NCC(=O)NCC(=O)N1CCC[C@H]1C(=O)N[C@@H](CO)C(=O)N[C@@H](CO)C(=O)NCC(=O)N[C@@H](C)C(=O)N1CCC[C@H]1C(=O)N1CCC[C@H]1C(=O)N1CCC[C@H]1C(=O)N[C@@H](CO)C(N)=O

Each binder was assayed against GLP-1 receptor (UniProt P43220 24-463, limits assumed) (assay: cell-based or functional assay).

Row | EC50 [nM] | relative activity [%] | Binder
1 | 0.025 |  | B1
2 | 0.04 |  | B2
3 | 0.1 | 40 | B3
4 | 13.1 |  | B4
5 | 98.4 | 0.06 | Y[Aib]EGTFISDYSIAMDKIHQQDFVCWLLAQKGKKNWLKHNITQ-NH2 [mt-102]
6 | 48.9 | 0.08 | B5
7 | 0.13 | 38.5 | HSQGTFTSDYSKYLDEIHQKEFIAWLLAQ-NH2 [mt-66]
8 | 0.126 |  | B6
9 | 264 | 0.02 | YAEGTFISDYSIAMDKIHQQDFVNWLLAQ-NH2 [mt-106]

These binders were tested against T1, GIP receptor (assay: cell-based or functional assay).

Row | EC50 [nM] | relative activity [%] | Binder
10 | 0.665 |  | B1
11 | 5.18 | 1.6 | B3
12 | 0.391 |  | B4
13 | 0.465 | 10.5 | B5
14 | 0.852 |  | B6

The binders below were run against glucagon receptor (UniProt P47871 26-477, limits assumed) (assay: cell-based or functional assay).
Sequence of glucagon receptor (P47871 26-477 limits assumed): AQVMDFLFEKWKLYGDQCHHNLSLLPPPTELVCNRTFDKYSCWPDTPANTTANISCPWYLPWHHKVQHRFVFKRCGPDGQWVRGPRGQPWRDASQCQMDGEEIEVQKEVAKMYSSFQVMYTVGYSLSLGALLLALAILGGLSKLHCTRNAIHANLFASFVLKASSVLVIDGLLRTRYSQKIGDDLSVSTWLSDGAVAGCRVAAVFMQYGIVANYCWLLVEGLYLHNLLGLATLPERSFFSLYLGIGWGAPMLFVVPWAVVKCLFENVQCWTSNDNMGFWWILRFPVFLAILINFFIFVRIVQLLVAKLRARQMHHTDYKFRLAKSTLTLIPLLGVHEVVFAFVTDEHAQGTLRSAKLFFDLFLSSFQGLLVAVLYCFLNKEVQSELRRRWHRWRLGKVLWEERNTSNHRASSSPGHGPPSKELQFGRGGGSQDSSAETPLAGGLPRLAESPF

Row | EC50 [nM] | relative activity [%] | Binder
15 | 3 |  | B2
16 | 0.45 | 42.2 | B3
17 | 799 | 0.02 | Y[Aib]EGTFISDYSIAMDKIHQQDFVCWLLAQKGKKNWLKHNITQ-NH2 [mt-102]
18 | 280 | 0.04 | B5
19 | 2 | 13 | HSQGTFTSDYSKYLDEIHQKEFIAWLLAQ-NH2 [mt-66]
20 | 165 | 0.11 | YAEGTFISDYSIAMDKIHQQDFVNWLLAQ-NH2 [mt-106]

— patent US20110166062A1 (INDIANA UNIVERSITY RESEARCH AND TECHNOLOGY, published 2011)
